Experimental data published in US20240239902A1.

Biological target: NKG2D on effector cells (NK cells, MNC) (human) (UniProt P26718)
Experiment: cell-based or functional assay

Chain of UniProt P26718 (P26718 whole entry): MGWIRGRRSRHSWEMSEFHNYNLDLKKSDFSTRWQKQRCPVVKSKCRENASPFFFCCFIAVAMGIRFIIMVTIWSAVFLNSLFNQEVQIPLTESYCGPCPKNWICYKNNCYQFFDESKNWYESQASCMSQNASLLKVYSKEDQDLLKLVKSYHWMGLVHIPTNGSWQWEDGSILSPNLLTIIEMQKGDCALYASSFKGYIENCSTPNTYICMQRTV

maximum lysis, CD19-DE mediated ADCC against GRANTA-519 with MNC, in combination with the bsAb (4 h 51Cr release): 24.5%
B1: bispecific antibody [CD20×NKG2D #3] (bispecific antibody, part only; not given: constant regions, Fab-scFv linker, tags, not shown: another chain or arm of the molecule; a dimerising Fc or GST; small tags and cut ends)
VH: QVQLQQPGAELVKPGASVKMSCKASGYTFTSYNMHWVKQTPGRGLEWIGAIYPGNGDTSYNQKFKGKATLTADKSSSTAYMQLSSLTSEDSAVYYCARSTYYGGDWYFNVWGAGTTVTVSS
VL: QIVLSQSPAILSASPGEKVTMTCRASSSVSYIHWFQQKPGSSPKPWIYATSNLASGVPVRFSGSGSGTSYSLTISRVEAEDAATYYCQQWTSNPPTFGGGTKLEIK
scFv: QVQLVQSGAEVKKPGASVKVSCKASGYTFTSYGISWVRQAPGQGLEWMGGIIPIFGTANYAQKFQGRVTITADESTSTAYMELSSLRSEDTAVYYCAKDLYDYVWGSYRPNWYFDLWGRGTLVTVSSGSASAPKLEEGEFSEARVSSELTQDPAVSVALGQTVRITCQGDSLRGYYASWYQQKPGQAPVLVTYGNNKRPSGIPDRFSGSSSGNTASLTITGTQAEDEADYYCNSRDNNGNFVIFGGGTKLTVL
